Source: patent publication US20210403593A1 (TIZONA THERAPEUTICS, published 2021)

Columns and labels:
[1] = target: T1, cynomolgus macaque (Macaca fascicularis) CD39 (Macaca fascicularis, UniProt P49961 7-510 (human entry)); experiment: flow cytometry, 100 nM IgG, MFI on CHO-cCD39 / MFI on parental CHO;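 further: antibodies bound to the cells for 30 min in PBS, then bound IgG was revealed with a fluorescent goat anti-human IgG secondary antibody, 20 min on ice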
T1 construct: On engineered CHO cells and on primary cyno B cells and monocytes; also called cyno CD39; cCD39
T1 chain: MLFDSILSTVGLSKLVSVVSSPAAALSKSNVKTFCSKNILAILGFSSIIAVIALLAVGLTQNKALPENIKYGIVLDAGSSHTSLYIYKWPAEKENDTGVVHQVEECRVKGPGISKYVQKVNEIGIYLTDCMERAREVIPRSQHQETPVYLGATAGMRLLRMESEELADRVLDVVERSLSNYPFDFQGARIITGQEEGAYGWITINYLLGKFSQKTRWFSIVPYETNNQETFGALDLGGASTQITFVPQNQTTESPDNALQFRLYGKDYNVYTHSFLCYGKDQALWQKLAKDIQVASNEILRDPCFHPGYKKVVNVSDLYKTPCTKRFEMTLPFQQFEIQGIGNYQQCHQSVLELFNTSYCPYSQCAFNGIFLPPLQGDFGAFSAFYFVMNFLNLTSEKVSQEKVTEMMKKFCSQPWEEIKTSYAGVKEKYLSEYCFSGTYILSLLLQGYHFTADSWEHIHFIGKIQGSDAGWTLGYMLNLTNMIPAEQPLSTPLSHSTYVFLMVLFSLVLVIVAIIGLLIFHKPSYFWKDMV

Chimera #4 = target: T2, Chimera #4 (Homo sapiens (Human), UniProt P49961 1-510); experiment: FACS on CHO cells, 15 ug/ml; human M1-S274 + mouse GGV + human L278-V510
T2 construct: Expressed on CHO cells
T2 chain: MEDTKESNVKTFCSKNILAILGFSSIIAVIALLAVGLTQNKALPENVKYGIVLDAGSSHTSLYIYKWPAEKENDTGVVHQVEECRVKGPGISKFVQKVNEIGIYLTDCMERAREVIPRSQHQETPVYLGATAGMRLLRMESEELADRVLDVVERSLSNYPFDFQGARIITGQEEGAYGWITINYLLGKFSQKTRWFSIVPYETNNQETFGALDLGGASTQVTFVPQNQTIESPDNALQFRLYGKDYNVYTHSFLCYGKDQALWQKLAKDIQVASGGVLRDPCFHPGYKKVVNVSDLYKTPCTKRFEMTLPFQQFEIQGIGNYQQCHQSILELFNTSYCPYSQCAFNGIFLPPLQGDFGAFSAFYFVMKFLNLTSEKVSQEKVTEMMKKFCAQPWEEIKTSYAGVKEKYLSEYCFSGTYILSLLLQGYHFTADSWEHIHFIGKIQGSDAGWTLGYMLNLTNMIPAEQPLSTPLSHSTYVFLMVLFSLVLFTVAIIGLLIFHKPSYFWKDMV

human CD39 (cellular) = target: T3, human CD39 (cellular) (human, UniProt P49961 1-510); experiment: flow cytometry, 100 nM IgG, MFI on CHO-hCD39 / MFI on parental CHO;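 further: cells exposed to IgG for 30 min on ice in PBS, bound antibody then revealed with a fluorescent goat anti-human IgG secondary (20 min, on ice)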
T3 construct: Same protein on engineered CHO cells and on cells that express it endogenously; also called hCD39; cellular CD39
T3 sequence: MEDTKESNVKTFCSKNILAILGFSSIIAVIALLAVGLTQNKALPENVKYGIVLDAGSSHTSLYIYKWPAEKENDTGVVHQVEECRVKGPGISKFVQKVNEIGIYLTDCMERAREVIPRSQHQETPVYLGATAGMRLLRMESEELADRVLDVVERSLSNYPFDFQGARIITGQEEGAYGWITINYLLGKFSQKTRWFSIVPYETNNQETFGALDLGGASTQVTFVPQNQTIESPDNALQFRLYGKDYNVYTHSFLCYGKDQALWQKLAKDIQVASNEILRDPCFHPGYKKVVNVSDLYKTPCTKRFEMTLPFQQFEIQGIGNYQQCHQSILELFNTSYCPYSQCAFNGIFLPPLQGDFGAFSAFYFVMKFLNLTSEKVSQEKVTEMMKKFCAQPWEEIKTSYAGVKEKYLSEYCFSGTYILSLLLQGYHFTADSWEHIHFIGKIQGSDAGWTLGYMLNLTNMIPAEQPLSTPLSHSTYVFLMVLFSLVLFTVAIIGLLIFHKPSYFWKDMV

Chimera #9 = target: T4, Chimera #9 (Homo sapiens (Human), UniProt P49961 1-510); experiment: FACS on CHO cells, 15 ug/ml; Chimera 2 with human D150 ([..])
T4 construct: Expressed on CHO cells
T4 chain: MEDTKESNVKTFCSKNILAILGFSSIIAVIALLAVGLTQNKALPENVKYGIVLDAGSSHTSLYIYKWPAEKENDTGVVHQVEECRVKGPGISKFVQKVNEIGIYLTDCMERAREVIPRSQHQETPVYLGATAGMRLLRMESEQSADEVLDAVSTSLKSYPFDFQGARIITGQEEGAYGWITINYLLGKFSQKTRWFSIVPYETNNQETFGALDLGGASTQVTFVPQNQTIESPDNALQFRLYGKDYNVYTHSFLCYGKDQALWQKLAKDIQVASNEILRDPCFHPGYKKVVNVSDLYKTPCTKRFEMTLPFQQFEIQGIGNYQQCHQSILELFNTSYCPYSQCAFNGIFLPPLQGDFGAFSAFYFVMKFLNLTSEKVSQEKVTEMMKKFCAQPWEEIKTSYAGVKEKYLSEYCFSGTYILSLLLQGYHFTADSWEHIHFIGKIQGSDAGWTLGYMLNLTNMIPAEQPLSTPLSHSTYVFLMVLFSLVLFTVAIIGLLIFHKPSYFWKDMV

Chimera #2 = target: T5, Chimera #2 (human, UniProt P49961 1-510); experiment: FACS on CHO cells; human M1-E142 + mouse Q143-S158 ([..]) + human Y159-V510
T5 construct: Expressed on CHO cells; also called human-mouse Chimera #2
T5 chain: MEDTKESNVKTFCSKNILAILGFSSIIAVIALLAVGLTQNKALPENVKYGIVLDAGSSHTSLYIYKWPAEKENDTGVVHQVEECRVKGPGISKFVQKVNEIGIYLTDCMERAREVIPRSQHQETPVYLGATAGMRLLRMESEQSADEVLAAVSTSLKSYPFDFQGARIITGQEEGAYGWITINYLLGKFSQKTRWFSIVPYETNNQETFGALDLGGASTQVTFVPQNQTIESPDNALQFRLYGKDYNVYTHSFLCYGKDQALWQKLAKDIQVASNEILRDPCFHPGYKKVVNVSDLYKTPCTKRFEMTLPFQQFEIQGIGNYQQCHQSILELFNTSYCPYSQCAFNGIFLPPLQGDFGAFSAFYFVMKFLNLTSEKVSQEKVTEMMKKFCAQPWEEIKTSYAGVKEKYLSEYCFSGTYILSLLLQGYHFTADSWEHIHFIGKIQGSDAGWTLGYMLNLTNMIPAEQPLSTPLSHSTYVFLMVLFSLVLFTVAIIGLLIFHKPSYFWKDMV

Chimera #10 = target: T6, Chimera #10 (Homo sapiens (Human), UniProt P49961 1-510); experiment: FACS on CHO cells, 15 ug/ml; Chimera 2 with human E153 ([..])
T6 construct: Expressed on CHO cells
T6 chain: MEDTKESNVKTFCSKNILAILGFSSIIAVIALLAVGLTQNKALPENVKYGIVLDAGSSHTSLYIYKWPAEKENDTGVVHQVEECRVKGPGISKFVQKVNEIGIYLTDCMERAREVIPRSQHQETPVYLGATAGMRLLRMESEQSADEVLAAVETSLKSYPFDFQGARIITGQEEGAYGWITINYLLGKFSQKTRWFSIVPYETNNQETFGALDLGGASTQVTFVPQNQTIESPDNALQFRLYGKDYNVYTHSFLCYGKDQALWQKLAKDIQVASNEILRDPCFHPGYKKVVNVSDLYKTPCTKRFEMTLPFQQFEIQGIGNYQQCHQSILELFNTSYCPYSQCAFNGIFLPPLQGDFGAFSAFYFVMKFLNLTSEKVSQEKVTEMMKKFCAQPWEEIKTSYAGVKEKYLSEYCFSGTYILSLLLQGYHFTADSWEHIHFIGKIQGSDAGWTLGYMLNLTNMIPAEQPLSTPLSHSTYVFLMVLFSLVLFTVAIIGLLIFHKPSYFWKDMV

B1: 31873 (antibody, human IgG4 S228P, kappa, V domains shown)
VH: QVQLVQSGAEVKKPGSSVKVSCKASGGTFSKYGISWVRQAPGQGLEWMGSIIPEFGIANYAQKFQGRVTITADESTSTAYMELSSLRSEDTAVYYCARESGGYRDHRLGVWGQGTMVTVSS
VL: EIVMTQSPATLSVSPGERATLSCRASQSVGSNLAWYQQKPGQAPRLLIYGASTRASGIPARFSGSGSGTEFTLTISSLQSEDFAVYYCQQYLLWPLTFGGGTKVEIKR
[1]
  Cell Binding (FOB): 5080 fold over background
Chimera #4
  binding result: binds
Human CD39 (cellular)
  Cell Binding (FOB): 1320 fold over background

B2: 31414 (antibody, human IgG4 S228P, kappa, V domains shown)
VH: QVQLVQSGAEVKKPGASVKVSCKASGYTFKSYEMHWVRQAPGQGLEWMGRINPSVGSTWYAQKFQGRVTMTRDTSTSTVYMELSSLRSEDTAVYYCARGKREGGTEYLRNWGQGTLVTVSS
VL: EIVLTQSPGTLSLSPGERATLSCRASQSVSSSYLAWYQQKPGQAPRLLIYGASSRATGIPDRFSGSGSGTDFTLTISRLEPEDFAVYYCQQYHSYITFGGGTKVEIKR
Chimera #9
  binding result: binds
[1]
  Cell Binding (FOB): 3570 fold over background
Chimera #4
  binding result: binds
Chimera #2
  binding result: no binding (tested: 15 ug/ml)
Chimera #10
  binding result: binds
Human CD39 (cellular)
  Cell Binding (FOB): 1240 fold over background

B3: 31418 (antibody, human IgG4 S228P, kappa, V domains shown)
VH: QVQLVQSGAEVKKPGASVKVSCKASGYTFKSYEMHWVRQAPGQGLEWMGRINPSGGSTWYAQKFQGRVTMTRDTSTSTVYMELSSLRSEDTAVYYCARGKREGGTEYLRHWGQGTLVTVSS
VL: EIVLTQSPGTLSLSPGERATLSCRASQSVSSSYLAWYQQKPGQAPRLLIYGASSRATGIPDRFSGSGSGTDFTLTISRLEPEDFAVYYCQQYYFYITFGGGTKVEIKR
Chimera #9
  binding result: binds
[1]
  Cell Binding (FOB): 3180 fold over background
Chimera #4
  binding result: binds
Chimera #2
  binding result: no binding (tested: 15 ug/ml)
Chimera #10
  binding result: binds
Human CD39 (cellular)
  Cell Binding (FOB): 1080 fold over background
